Results as given in US20200199217A1.
Positions count from the first letter of the chain named.

T1: hu-IL-36β (human)
T1 sequence: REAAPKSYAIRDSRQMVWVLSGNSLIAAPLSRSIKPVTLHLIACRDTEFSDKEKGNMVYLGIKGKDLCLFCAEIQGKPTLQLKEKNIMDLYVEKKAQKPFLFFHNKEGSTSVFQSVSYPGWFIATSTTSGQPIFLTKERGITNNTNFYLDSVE

B1: mAb2.0 Fab (Fab, V domains shown)
VH: QLQLQESGPGLVKPSETLSLTCTVSGGSISTSSYYWGWIRQPPGKGLEWIGSIYYTGNTYYNPSLKSRVTISVDTSKNQFSLKLSSVTAADTAVYYCARVRYGVGVPRYFDPWGQGTLVTVSS
VL: QSVLTQPPSVSGAPGQRVTISCTGSSSNIGAHYDVHWYQQLPGTAPKLLIYGNDNRPSGVPDRFSGSKSGTSASLAITGLQAEDEADYYCQSYDYSLSGYVFGGGTKLTVL
B2: mAb4.0 Fab (Fab, V domains shown)
VH: QLQLQESGPGLVKPSETLSLTCTVSGGSIGSRSYYWGWIRQPPGKGLEWIGSIHYSGTTYYNPSLKSRVTISVDTSKNQFSLKLSSVTAADTAVYYCARVAPSYPRVFDYWGQGTLVTVSS
VL: B1 VL with H32G, D54R, S98R, G99V
B3: mAb5.0 Fab (Fab, V domains shown)
VH: EVQLLESGGGLVQPGGSLRLSCAASGFTFSTYAMSWVRQAPGKGLEWVSGISGGSGYTYYADSVKGRFTISRDNSKNTLYLQMNSLRAEDTAVYYCARVVTYRDPPASFDYWGQGTLVTVSS
VL: B1 VL with S98K, G99A
B4: mAb1.0 Fab (Fab, V domains shown)
VH: QVQLVESGGGVVQPGRSLRLSCAASGFSFSAYAMHWVRQAPGKGLEWVAVISYDGTNEYYADSVKGRFTISRDNSKNTLYLQMNSLRAEDTAVYYCARGIRIFTSYFDSWGQGTLVTVSS
VL: B1 VL with G52S, D54N, S98R
B5: mAb3.0 Fab (Fab, V domains shown)
VH: B1 VH with T31S, S32T, Y54H, T56S, R101H, V104G, G105Y, V106I, Y109R, P112H
VL: B1 VL with H32G, D54T, S98R
B6: mAb7.0 Fab (Fab, V domains shown)
VH: QVQLVESGGGVVQPGRSLRLSCAASGFTFSSYGMHWVRQAPGKGLEWVAVISYGGSERYYADSVKGRFTISRDNSKNTLYLQMNSLRAEDTAVYYCAREPWYSSRGWTGYGFDVWGQGTLVTVSS
VL: EIVLTQSPGTLSLSPGERATLSCRASQSVSSNYLAWYQQKPGQAPKLLIYSASSLQSGVPSRFSGSGSGTDFTLTISSLQPEDFATYYCQQTYSYPPTFGQGTKVEIK
B7: mAb8.0 Fab (Fab, V domains shown)
VH: QVQLVQSGAEVKKPGSSVKVSCKASGGTFSNYAISWVRQAPGQGLEWMGGILPILGTVDYAQKFQGRVTITADESTSTAYMELSSLRSEDTAVYYCAREPWYRLGAFDVWGQGTLVTVSS
VL: DIQMTQSPSSLSASVGDRVTITCRASQTIYKYLNWYQQKPGKAPKLLIYAASSLQSGVPSRFSGSGSGTDFTLTISSLQPEDFATYYCQQYSSIPYTFGQGTKVEIK
B8: mAb6.0 Fab (Fab, V domains shown)
VH: QLQLQESGPGLVKPSETLSLTCTVSGGSITSSNYYWGWIRQPPGKGLEWIGSIDYTGSTYYNPSLKSRVTISVDTSKNQFSLKLSSVTAADTAVYYCARGKYYETYLGFDVWGQGTLVTVSS
VL: B1 VL with H32G, D54T, Y95I, Y100W

Each binder was assayed against T1, hu-IL-36β (human) (assay: ELISA, yeast Fab supernatant).

| ELISA OD450 [OD450] | Binder |
| --- | --- |
| 0.0604 | B1 |
| 0.0513 | B2 |
| 0.129 | B3 |
| 0.0523 | B4 |
| 0.11 | B5 |

What follows are binders tested against hu-IL-36γ (human) (UniProt Q9NZH8) (assay: ELISA, yeast Fab supernatant).
hu-IL-36γ (human), sequence (Q9NZH8 18-169 limits assumed): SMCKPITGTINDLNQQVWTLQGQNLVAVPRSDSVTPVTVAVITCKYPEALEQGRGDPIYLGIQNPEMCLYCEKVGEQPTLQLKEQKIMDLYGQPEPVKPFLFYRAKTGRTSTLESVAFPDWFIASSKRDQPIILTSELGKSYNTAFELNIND

| ELISA OD450 [OD450] | Binder |
| --- | --- |
| 0.0724 | B6 |
| 0.073 | B7 |
| 0.0656 | B8 |

Each binder was assayed against hu-IL-36α (human) (UniProt Q9UHA7) (assay: ELISA, yeast Fab supernatant).
hu-IL-36α (human), sequence (Q9UHA7 6-158 limits assumed): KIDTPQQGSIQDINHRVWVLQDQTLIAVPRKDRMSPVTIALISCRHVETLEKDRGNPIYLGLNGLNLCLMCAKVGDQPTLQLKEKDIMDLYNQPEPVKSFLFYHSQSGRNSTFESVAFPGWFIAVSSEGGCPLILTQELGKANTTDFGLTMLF

| ELISA OD450 [OD450] | Binder |
| --- | --- |
| 0.0604 | B6 |
| 0.0698 | B7 |
| 0.0638 | B8 |
